Experimental data reported in patent publication US20110268755A1 (HEALTH RESEARCH, published 2011).

Experiments:
HLA-A*0201 [1] = biological target: T1, HLA-A*0201 (human); assay: competitive peptide binding assay, displacement of fluorescently labeled HPV18-27 from HLA-A*0201
T1 construct: also called human MHC class I; MHC I
Excerpt: To obtain the data summarized in FIGS. 4A and 4B, survivin peptide epitopes were used in MHC class I peptide competitive displacement assays. […] Positive control peptides (Flu & gp100) represent known immunogenic MHC class I ligands. Data represent mean fluorescence±S.E.M. of triplicate samples.

H2-K^b = biological target: T2, H2-K^b (mouse, UniProt P01887 21-119; P01901 22-369, limits assumed); assay: H2-K^b upregulation on RMA-S cells, 100 µM peptide, 37° C.
T2 construct: whole, on cells; also called murine MHC class I
T2 sequence (MHC heavy, looked up): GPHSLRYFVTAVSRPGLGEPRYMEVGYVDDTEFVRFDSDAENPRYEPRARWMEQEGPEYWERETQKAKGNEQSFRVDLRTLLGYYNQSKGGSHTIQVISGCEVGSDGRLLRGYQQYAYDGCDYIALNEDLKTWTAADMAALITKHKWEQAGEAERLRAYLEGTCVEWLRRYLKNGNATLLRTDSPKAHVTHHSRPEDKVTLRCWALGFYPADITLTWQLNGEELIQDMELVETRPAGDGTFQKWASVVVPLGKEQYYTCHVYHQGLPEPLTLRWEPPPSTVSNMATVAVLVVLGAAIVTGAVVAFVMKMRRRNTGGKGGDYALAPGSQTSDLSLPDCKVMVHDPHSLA
T2 sequence (b2m, looked up): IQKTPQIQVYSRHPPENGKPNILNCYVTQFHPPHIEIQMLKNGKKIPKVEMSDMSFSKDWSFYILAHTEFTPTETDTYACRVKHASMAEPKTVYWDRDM
Description: To obtain the data presented in FIG. 3, survivin peptide epitopes were used in conventional MHC class I peptide binding assays. Mean fluorescence in FIG. 3 represents binding of SVN peptides to H2-K^b. Upregulation of H2-K^b molecules on the surface of murine RMA-S cells which are deficient in the expression of surface MHC class I molecules was used to determine actual survivin peptide binding in vitro. Data presented in FIG. 3 represent the binding of 100 μM peptide at 37° C.

HLA-A*0201 [2] = biological target: T1, HLA-A*0201; assay: survivin/MHC Class I-specific HLA-A*0201 pentamer binding

B1: wild type SVN53-67 (peptide)
peptide: DLAQCFFCFKELEGW
B1: binds (HLA-A*0201 [1]).

B2: SVN53-67/M57 (peptide)
peptide: DLAQMFFCFKELEGW
notes: also called Survivin M57; Survivin-53-67/57M
With B2 the “fold stronger binding than wild type SVN53-67” value (HLA-A*0201 [1]) was roughly 12 fold.

B3: SVN97-104 (peptide)
peptide: TLGEFLKL
B3: binds (H2-K^b).

B4: SVN-57-64 (peptide)
peptide: CFFCFKEL
notes: also called SVN 57-64 wt
B4: binds (H2-K^b).

B5: SVN-57-64/M57 (peptide)
peptide: MFFCFKEL
B5: binds (H2-K^b).

B6: wild type SVN56-64 (peptide)
peptide: QCFFCFKEL
B6: binds (HLA-A*0201 [2]).

B7: SVN56-64/M57 (peptide)
peptide: QMFFCFKEL
notes: also called core peptide SVN56-64/M57
B7 was tested, and the “fold stronger binding than wild type SVN56-64” value (HLA-A*0201 [2]) was roughly 73 fold.
